Results as given in patent publication US20120090043A1, “TARGETS FOR RETROVIRUS ASSOCIATED DISEASES” (priority 2009, published 2012).

B1: SPG21: human host interactor protein, Gene ID 51324, expressed from transfected ORF vector (protein)
chain: MGEIKVSPDYNWFRGTVPLKKIIVDDDDSKIWSLYDAGPRSIRCPLIFLPPVSGTADVFFRQILALTGWGYRVIALQYPVYWDHLEFCDGFRKLLDHLQLDKVHLFGASLGGFLAQKFAEYTHKSPRVHSLILCNSFSDTSIFNQTWTANSFWLMPAFMLKKIVLGNFSSGPVDPMMADAIDFMVDRLESLGQSELASRLTLNCQNSYVEPHKIRDIPVTIMDVFDQSALSTEAKEEMYKLYPNARRAHLKTGGNFPYLCRSAEVNLYVQIHLLQFHGTKYAAIDPSMVSAEELEVQKGSLGISQEEQ
B2: TTC23: human host interactor protein, Gene ID 64927, expressed from transfected ORF vector (protein)
chain: MQESQETHISNHLDEVVAAVSITHRKKFQNKLLQTALFQPPREKLHLCEEKAKSYSNSHEYKQAVHELVRCVALTRICYGDSHWKLAEAHVNLAQGYLQLKGLSLQAKQHAEKARQILANSIVPPYSENTDVFKFSIELFHTMGRALLSLQKFKEAAENLTKAERLSKELLQCGRIIKEEWIEIEARIRLSFAQVYQGQKKSKEALSHYQAALEYVEISKGETSRECVPILRELAGVEQALGLHDVSINHFLQAHLIILSRSPSQVEAADSAHIVAHAAVASGRHEHHDVAEQYFQESMAHLKDSEGMGRTKFLSIQDEFCHFLQMTGQKERATSILRESLEAKVEAFGDFSPEVAETYRLLGGADLAQGNHSGARKKLKKCLQIQTLLYGPQDKRTLATQQAMGMLSTAPKVASKPRQASKAKVAFCTSIPQDTLLGKARPGTTAD
B3: DLAT: human host interactor protein, Gene ID 1737, expressed from transfected ORF vector (protein)
chain: MWRVCARRAQNVAPWAGLEARWTALQEVPGTPRVTSRSGPAPARRNSVTTGYGGVRALCGWTPSSGATPRNRLLLQLLGSPGRRYYSLPPHQKVPLPSLSPTMQAGTIARWEKKEGDKINEGDLIAEVETDKATVGFESLEECYMAKILVAEGTRDVPIGAIICITVGKPEDIEAFKNYTLDSSAAPTPQAAPAPTPAATASPPTPSAQAPGSSYPPHMQVLLPALSPTMTMGTVQRWEKKVGEKLSEGDLLAEIETDKATIGFEVQEEGYLAKILVPEGTRDVPLGTPLCIIVEKEADISAFADYRPTEVTDLKPQVPPPTPPPVAAVPPTPQPLAPTPSAPCPATPAGPKGRVFVSPLAKKLAVEKGIDLTQVKGTGPDGRITKKDIDSFVPSKVAPAPAAVVPPTGPGMAPVPTGVFTDIPISNIRRVIAQRLMQSKQTIPHYYLSIDVNMGEVLLVRKELNKILEGRSKISVNDFIIKASALACLKVPEANSSWMDTVIRQNHVVDVSVAVSTPAGLITPIVFNAHIKGVETIANDVVSLATKAREGKLQPHEFQGGTFTISNLGMFGIKNFSAIINPPQACILAIGASEDKLVPADNEKGFDVASMMSVTLSCDHRVVDGAVGAQWLAEFRKYLEKPITMLL
B4: HOXD3: human host interactor protein, Gene ID 3232, expressed from transfected ORF vector (protein)
chain: MLFEQGQQALELPECTMQKAAYYENPGLFGGYGYSKTTDTYGYSTPHQPYPPPAAASSLDTDYPGSACSIQSSAPLRAPAHKGAELNGSCMRPGTGNSQGGGGGSQPPGLNSEQQPPQPPPPPPTLPPSSPTNPGGGVPAKKPKGGPNASSSSATISKQIFPWMKESRQNSKQKNSCATAGESCEDKSPPGPASKRVRTAYTSAQLVELEKEFHFNRYLCRPRRVEMANLLNLTERQIKIWFQNRRMKYKKDQKAKGILHSPASQSPERSPPLGGAAGHVAYSGQLPPVPGLAYDAPSPPAFAKSQPNMYGLAAYTAPLSSCLPQQKRYAAPEFEPHPMASNGGGFASANLQGSPVYVGGNFVESMAPASGPVFNLGHLSHPSSASVDYSCAAQIPGNHHHGPCDPHPTYTDLSAHHSSQGRLPEAPKLTHL
B5: KRT15: human host interactor protein, Gene ID 3866, expressed from transfected ORF vector (protein)
chain: MTTTFLQTSSSTFGGGSTRGGSLLAGGGGFGGGSLSGGGGSRSISASSARFVSSGSGGGYGGGMRVCGFGGGAGSVFGGGFGGGVGGGFGGGFGGGDGGLLSGNEKITMQNLNDRLASYLDKVRALEEANADLEVKIHDWYQKQTPTSPECDYSQYFKTIEELRDKIMATTIDNSRVILEIDNARLAADDFRLKYENELALRQGVEADINGLRRVLDELTLARTDLEMQIEGLNEELAYLKKNHEEEMKEFSSQLAGQVNVEMDAAPGVDLTRVLAEMREQYEAMAEKNRRDVEAWFFSKTEELNKEVASNTEMIQTSKTEITDLRRTMQELEIELQSQLSMKAGLENSLAETECRYATQLQQIQGLIGGLEAQLSELRCEMEAQNQEYKMLLDIKTRLEQEIATYRSLLEGQDAKMAGIAIREASSGGGGSSSNFHINVEESVDGQVVSSHKREI
B6: LOC541468: human host interactor protein, Gene ID 541468, expressed from transfected ORF vector (protein)
chain: MEGTVESQTPDLRDVEGKVGRKTPEGLLRGLRGECELGTSGALLLPGASSTGHDLGDKIMALKMELAYLRAIDVKILQQLVTLNEGIEAVRWLLEERGTLTSHCSSLTSSQYSLTGGSPGRSRRGSWDSLPDTSTTDRLDSVSIGSFLDTVAPSELDEQGPPGAPRSEMDWAKVIAGGERARTEVDVAATRLGSLRAVWKPPGERLQGGPPESPEDESAKLGFEAHWFWEQCQDDVTFL
B7: MINA: human host interactor protein, Gene ID 84864, expressed from transfected ORF vector (protein)
chain: MPKKAKPTGSGKEEGPAPCKQMKLEAAGGPSALNFDSPSSLFESLISPIKTETFFKEFWEQKPLLIQRDDPALATYYGSLFKLTDLKSLCSRGMYYGRDVNVCRCVNGKKKVLNKDGKAHFLQLRKDFDQKRATIQFHQPQRFKDELWRIQEKLECYFGSLVGSNVYITPAGSQGLPPHYDDVEVFILQLEGEKHWRLYHPTVPLAREYSVEAEERIGRPVHEFMLKPGDLLYFPRGTIHQADTPAGLAHSTHVTISTYQNNSWGDFLLDTISGLVFDTAKEDVELRTGIPRQLLLQVESTTVATRRLSGFLRTLADRLEGTKELLSSDMKKDFIMHRLPPYSAGDGAELSTPGGKLPRLDSVVRLQFKDHIVLTVLPDQDQSDEAQEKMVYIYHSLKNSRETHMMGNEEETEFHGLRFPLSHLDALKQIWNSPAISVKDLKLTTDEEKESLVLSLWTECLIQVV
B8: MIZF: human host interactor protein, Gene ID 25988, expressed from transfected ORF vector (protein)
chain: MPPPGKVPRKENLWLQCEWGSCSFVCSTMEKFFEHVTQHLQQHLHGSGEEEEEEEEDDPLEEEFSCLWQECGFCSLDSSADLIRHVYFHCYHTKLKQWGLQALQSQADLGPCILDFQSRNVIPDIPDHFLCLWEHCENSFDNPEWFYRHVEAHSLCCEYEAVGKDNPVVLCGWKGCTCTFKDRSKLREHLRSHTQEKVVACPTCGGMFANNTKFLDHIRRQTSLDQQHFQCSHCSKRFATERLLRDHMRNHVNHYKCPLCDMTCPLPSSLRNHMRFRHSEDRPFKCDCCDYSCKNLIDLQKHLDTHSEEPAYRCDFENCTFSARSLCSIKSHYRKVHEGDSEPRYKCHVCDKCFTRGNNLTVHLRKKHQFKWPSGHPRFRYKEHEDGYMRLQLVRYESVELTQQLLRQPQEGSGLGTSLNESSLQGIILETVPGEPGRKEEEEEGKGSEGTALSASQDNPSSVIHVVNQTNAQGQQEIVYYVLSEAPGEPPPAPEPPSGGIMEKLQGIAEEPEIQMV
B9: MLLT11: human host interactor protein, Gene ID 10962, expressed from transfected ORF vector (protein)
chain: MRDPVSSQYSSFLFWRMPIPELDLSELEGLGLSDTATYKVKDSSVGKMIGQATAADQEKNPEGDGLLEYSTFNFWRAPIASIHSFELDLL

Tested on: HTLV-1 LTR promoter transactivation by HTLV-1 Tax
Test: Transactivation assay, HTLV-1 LTR luciferase reporter with HTLV-1 Tax
Format: cell-based
Details: HEK293 cells co-transfected with pHTLV1LTR-Luc, HTLV-1 Tax and the human ORF; relative luciferase activity 24 h post-transfection; positive if >=2 or <=0.5 and p<0.05
Excerpt: (§1) Twenty-four hours post-transfection, cells were washed three times with PBS, lysed and luciferase activities determined from two independent transfection experiments in triplicate. We computed a paired t-test to assess the difference of the means between samples with and without the human interactor. For a trial to be considered positive, the relative luciferase activities has to be >=2 or <=0.5, and the p-value of the t-test<0.05.
Expression vectors encoding human ORFs and HIV-1 Tat or HTLV-1 Tax proteins were tested in a transactivation reporter assay against reporter plasmids harboring HIV-1 or HTLV-1 viral promoter sequences cloned upstream of the luciferase reporter gene. […] Wherever not expressly specified, constructs used herein were generally made by sub-cloning entry clones from the ORFeome V3.1 into suitable destination vectors.

| Molecule | HTLV_LTR transactiv. [fold change] |
| --- | --- |
| B1 | 0.21 |
| B2 | 0.21 |

Tested on: HIV-1 LTR promoter transactivation by HIV-1 Tat
Test: Transactivation assay, HIV-1 LTR luciferase reporter with HIV-1 Tat
Format: cell-based
Details: HEK293 cells co-transfected with pHIV1LTR-Luc, HIV-1 Tat and the human ORF; relative luciferase activity 24 h post-transfection; positive if >=2 or <=0.5 and p<0.05
Excerpt: as §1, with “The plasmids pHIV1LTR-Luc or pHTLV1LTR-Luc containing a luciferase reporter gene under the control of the HIV-1 or HTLV-1 LTR promoters and plasmids expressing either HIV-1 Tat or HTLV-1 Tax and each human ORF found to interact with viral proteins were transfected into 10^4 HEK293 cells using the calcium phosphate method. Twenty-four” for “Twenty-four”
Many HIV/HTLV-human interactions in our data set (130/212) involved the retroviral transactivator proteins HTLV-1 Tax (57/212), HTLV-2 Tax2 (49/212), HIV-1 Tat (10/212) and HIV-2 Tat (14/212). Human proteins interacting with viral transactivators likely influence Tat or Tax transactivation. Expression vectors encoding human ORFs and HIV-1 Tat or HTLV-1 Tax proteins were tested in a transactivation reporter assay against reporter plasmids harboring HIV-1 or HTLV-1 viral promoter sequences cloned upstream of the luciferase reporter gene. In the controls Tat or Tax respectively activated HIV or HTLV LTR-directed gene expression. Co-transfection of interacting human ORFs identified 71 proteins (54% of the 131 human targets in our data set) that regulated HIV (26.7% of targets), HTLV (37.4% of targets) or both (9.9% of targets) LTR promoter activation by Tat or Tax (see Tables 7 and 8; Table 13 below containing quantitative data on the regulation of transactivation). Wherever not expressly specified, constructs used herein were generally made by sub-cloning entry clones from the ORFeome V3.1 into suitable destination vectors.

| Molecule | HIV_LTR transactiv. [fold change] |
| --- | --- |
| B3 | 6.90 |
| B4 | 7.30 |
| B5 | 0.33 |
| B6 | 2.38 |
| B7 | 0.40 |
| B8 | 2.50 |
| B9 | 3.41 |
